In publication PMC7058014 one finds binding data, which are given here for five sequences.

For the data set, the target named is T1, GST-ATML1(30-134) (Arabidopsis thaliana) (UniProt Q8RWU4).
T1 sequence: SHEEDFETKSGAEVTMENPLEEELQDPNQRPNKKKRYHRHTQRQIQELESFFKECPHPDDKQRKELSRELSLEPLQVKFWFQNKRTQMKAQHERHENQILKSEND
As to the kind of experiment: EMSA. Particulars: 15 mM Tris pH 7.5, 50 mM NaCl, 0.1 mM DTT, 5% glycerol, 0.1 mM MgCl2, 50 ng/ul carrier DNA, room temperature 30 min; 6% gel in 0.5x TBE at 4 C. Background: Mobility shift assays separate free from complexed probe on a gel.
On to “CCTCCTCAAGAAGGAAAGACAGAGGAGGAGACAAAGAAGTATAGGTTCACATTGCATAGCCAGTTTAGTTTTGAAGGATGGATATATGAAAAAAATATGAAGAGAGAGAAGAGAGAAGAAGAGGAGGATTAAAGAGGGTGAGGCCAGCTTTTGTGCTTTGGTAGTAGATGAGGTTTAAATGCTCCATACCTTCCATTTCCTTCTCTCTTACCCTAATTTAATTCTTCCTCTCCTTTATAACTCCCCACAGACATTCTCACT (double strand) [MIR171A-F3]”, for which the binding result was “binds”. The value for “ATGTGAATGAAGCCAAGAATCAGTTAATACTAAAGCTCAAGTGTGCAATATACATCACAATACCTTTGTCCTTGTTTCAGGTCTACTTTTACATCATAGAACTTGCTCCTATAGATAATACAATGCATGGTATTGACGTAAGAACTCTTAGCTTTTCATATTAGTAGCTTATAATGTTCCTTAAATGCGACATTGATATTAAGCTACTACTCAATAACTCAATGGTAACGAATCATAAGTCTGAACTATTCGAAAACAGTAATCCTGAAAAGAAA (double strand) [MIR171A-F1]” was “binds”. Consider “ATGTTGATTACCCATATACTTTGCTAGCGGCCGAAATGATCACTTTCATGATTTTTTTTTGCATAGGTTCATAAAACATATATTTACTTTTTTTTAAGGAAATATTAAATAAATGATAGGAACTTAACAAGAGAAGAAATAAATAGGGAGGGAGAATATTTGGAAAGTTGAGCCATATTAATTTCGAAATTCAAATGTATATTGGGAGTGGCACAACCCCACCAACATGCCTTGCTCTCTCTTACAAACCTCATAAATACTAAATTGAAAGCTCGTGGGA (double strand) [MIR171B-F3]”, for which the binding entry is reported as “binds”.

Turning to “CCTGATAATTTGATATCATCGGTTGTAAAAACGAATATGTAATGTTACATTACTAATGTATAAAGTATAAACAAATATTATTATCTTTTGAAAAAAGTTTTTCATAGAAACAATTCAAATTTAATAAACCAACCTCCTTTTTGGTATGGGGTTGTTGGTCTAATTTAATGCTTGTCTCTTGCTTGCCTCTCTTCTTCAACCATCTTCGTATTTATATCTTCTTCTTCACTATGCATACTCATAAACTTTGCTACTGGCCGCAT (double strand) [MIR171B-F4]”, the binding entry is listed as “binds”. Turning to “GGGTTCATAACTTGCTTGAGGTTTTGTAAAAAGCAGAGAAAGAGAGAGAGAGGGGCCTAGAAAGAAAGAAAGAAAAGCAGTAAGAGACTATTAAATGTTGCAGGCAGGTCCAGCCAGTGTCCCCTCTCTTCTGCGAGATTCCCTCAAAATTTATTACAAAGCATCTTCATCGATGTTCTTTTAATTCTTCCTCAAAATCTTTTCTCTTTTTTTGGTTATATATATTTGAATTTTGATTTATGAACCTCCTCAAGAAGGAAA (double strand) [MIR171A-F2]”, the binding result is listed as “binds”.
